Data on two molecules can be found in US8802376B2, “Methods for identifying candidate cytotoxic antibody molecules” (Agency for Science, Technology and Research, priority 2010, dated 2014).

For data set [1], the system named is human embryonic stem cells (hESC). The data set can be described thus: inhibition of mAb84 binding to hESC by soluble trisaccharide. The following applies: trisaccharide 0.4 mM, 0.8 mM, 2 mM, 4 mM; mAb84 (25 pM, 5 μg) in 200 μl, 2×10^5 hESC. Type of data set: cell-based. How it is done:
(§1) The importance of the trisaccharide Fucα1-2Galβ1-3GlcNA in mediating the cytotoxic interaction of mAb84 on human embryonic stem cells (hESC) was investigated by assessing the ability of synthetic soluble trisaccharide Fucα1-2Galβ1-3GlcNA to (i) inhibit the binding of mAb84 to hESC and (ii) reduce the cytotoxic effect of mAb84 on hESC.
(§2) mAb84 (25 pM, 5 μg) in 200 μl volume was added to 2×10^5 hESC and preincubated for 15 minutes prior to addition of synthetic soluble trisaccharide Fucα1-2Galβ1-3GlcN (in concentrations of 0 (control), 0.4 mM, 0.8 mM, 2 mM, 4 mM).

The test system is the same in data set [2]. The data set can be described thus: relative viability of hESC in response to mAb84 with added trisaccharide. It is filed as cell-based. How it is done:
as §1, §2

Data set [3] deals with T1, PODXL on the surface of hESCs (Homo sapiens, UniProt O00592).
T1 construct: mAb 84 only detected hESC—PODXL but not expressed PODXL; endogenous in cells; host or cells: hESC (HES-3)
T1 sequence (O00592 23-558): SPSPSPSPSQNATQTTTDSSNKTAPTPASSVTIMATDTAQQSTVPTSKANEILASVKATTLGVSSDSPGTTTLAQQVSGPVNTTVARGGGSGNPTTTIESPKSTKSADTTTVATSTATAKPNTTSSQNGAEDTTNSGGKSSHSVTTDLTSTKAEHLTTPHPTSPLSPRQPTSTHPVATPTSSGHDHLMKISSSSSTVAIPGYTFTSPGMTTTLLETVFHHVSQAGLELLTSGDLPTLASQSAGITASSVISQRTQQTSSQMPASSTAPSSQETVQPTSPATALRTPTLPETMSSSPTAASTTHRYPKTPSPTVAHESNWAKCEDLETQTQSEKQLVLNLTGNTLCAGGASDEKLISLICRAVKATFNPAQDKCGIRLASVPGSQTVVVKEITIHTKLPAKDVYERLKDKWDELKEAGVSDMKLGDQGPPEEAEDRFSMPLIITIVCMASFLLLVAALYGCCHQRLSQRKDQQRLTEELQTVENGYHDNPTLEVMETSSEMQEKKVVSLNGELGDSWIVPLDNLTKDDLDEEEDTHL
The data set can be described thus: kinetics of mAb84 binding to PODXL on the surface of hESCs.

The nature of data set [4]: Printed Glycan Array V4.1 (Consortium for Functional Glycomics) binding. The method, then:
Buffers: • TSM=20 mM Tris-HCl, pH 7.4 150 mM NaCl, 2 mM CaCl2, 2 mM MgCl2 • TSM Wash Buffer (TSMW)=TSM Buffer+0.05% Tween-20 • TSM Binding Buffer (TSMBB)=TSM buffer+0.05% Tween 20+1% BSA
Protocol: • 1. Make working stocks of washing buffers (TSM, TSM Wash Buffer, and H2O) or collect reagents and bring to room temperature if they have been in the refrigerator. • 1.1. Buffer (A) TSM-20 mM Tris-HCl, pH 7.4 150 mM NaCl, 2 mM CaCl2, 2 mM MgCl2 • 1.2. Buffer (B) TSM Wash Buffer (TSMW)—TSM Buffer+0.05% Tween-20 • 1.3. Buffer (C) TSM Binding Buffer (TSMBB)—TSM buffer+0.05% Tween 20+1% BSA • 1.4. dH20 • 2. Prepare 100 μl of sample by diluting antibody in TSMBB or appropriate Binding Buffer based on properties of Antibody to a final concentration of 5-50 μg/ml or an appropriate concentration required for the analysis. • mAb84 antibodies were added at a concentration of 50 μg/ml. • mAb85 antibodies were added at a concentration of 50 μg/ml. • 3. Remove slide(s) from dessicator and label slide with sample name near barcode, outside of the black marks. • 4. […]
mAb84 antibodies were contacted with the glycans. […] Bound antibodies were detected using AlexaFluor-488-labeled secondary antibodies as described above. The secondary antibodies were then detected using a fluorescence scanner. Binding is presented in relative fluorescence units (RFU). […]

In data set [5] the target is T2, unglycosylated PODXL (in vitro transcription and translation (TnT)) (Homo sapiens, UniProt O00592).
T2 construct: made in house; host or cells: in vitro transcription and translation (cell-free)
T2 sequence (O00592 23-558): T1 sequence (O00592 23-558)
The data set can be described thus: Western blot of in vitro TnT-expressed PODXL probed with antibodies. The settings on record: SDS-PAGE. Type of data set: binding. The text has this:
(§3) The gene encoding PODXL was isolated and sequenced from hESC. The gene was cloned into vectors and expressed either unglycosylated (in vitro TnT) or in mammalian cells (HEK or COS cells which are capable of glycosylating the expressed protein).
(§4) The proteins obtained were then resolved on SDS-PAGE, Western blotted and probed with antibodies. The antibodies used were commercially available anti-PODXL antibodies (monoclonal and polyclonal) and mAb 84. […] For COS and HEK expressed PODXL, only monoclonal anti-PODXL detected both the expressed PODXL and PODXL from hESC.
For orientation: In western blotting, separated proteins are transferred to a membrane and probed.

In data set [6] the target is T3, PODXL over-expressed in HEK and COS cells (Homo sapiens, UniProt O00592).
T3 construct: expressed in transfected cells; host or cells: HEK or COS cells
T3 sequence (O00592 23-558): T1 sequence (O00592 23-558)
The data set can be described thus: Western blot of COS and HEK expressed PODXL probed with antibodies. The following applies: SDS-PAGE. It is filed as binding.
Source text: as §3, §4

A further data set deals with T4, PODXL from hESC (HES-3) (Homo sapiens, UniProt O00592).
T4 construct: mAb 84 only detected hESC—PODXL but not expressed PODXL; endogenous in cells; host or cells: hESC (HES-3)
T4 sequence (O00592 23-558): T1 sequence (O00592 23-558)
The data set can be described thus: Western blot of PODXL from hESC probed with antibodies. The following applies: SDS-PAGE. Type of data set: binding.
Source text: as §3, §4
In either COS or HEK cells, PODXL is glycosylated (and so has a higher MW). However the band is lower than PODXL expressed in hESC (HES-3). Also, mAb 84 only detected hESC—PODXL but not expressed PODXL. This led to the conclusion that there is a stem cell-specific modification (glycosylation) to PODXL. Without being bound by theory, it appears that when PODXL is glycosylated by stem cells the resulting glycan structure is different that of PODXL glycosylated by other cells.

In the next data set the test system is day 8 embyroid bodies. The data set can be described thus: mAb 84 binding reactivity to embryoid bodies. It is filed as cell-based, human.
The next data set concerns FGF2-starved hESC. The data set can be described thus: mAb 84-mediated killing on FGF2-starved hESC. Type of data set: cell-based, human.
The test system of the next data set is day 22 EB. The data set can be described thus: mAb 84-mediated killing on day 22 EB. It is filed as cell-based, human.
The subject of data set [7] is undifferentiated human embryonic stem cells (hESC). The following applies: cited from earlier work.
The subject of the next data set is IPSCs. The following applies: WO/2010/033084; cited from earlier work.
For a further data set, the system named is hESC. The settings on record: hESC treated with mAb 84 prior to transplantation into SCID mice; cited from earlier work.

On to `CC(=O)N[C@H]1C(O)O[C@H](CO)[C@@H](O)[C@@H]1O[C@@H]1O[C@H](CO)[C@H](O)[C@H](O)[C@H]1O[C@@H]1O[C@@H](C)[C@@H](O)[C@@H](O)[C@@H]1O` (stereo partly shown) [Fucα1-2Galβ1-3GlcNAc], for which, in data set [1], the “inhibition of mAb84 binding to hESC” value was “dose dependently inhibit”. For the same molecule, the “cytotoxic effect of mAb84 on hESC (relative viability)” value in data set [2] (increasing concentrations of trisaccharide 0.4 mM, 0.8 mM, 2 mM, 4 mM) is recorded as “reduction”; in data set [2] (trisaccharide 2 mM), “abolished”; in data set [2] (trisaccharide 4 mM) it was “abolished”.

B1: mAb84: IgM monoclonal antibody which specifically binds and kills undifferentiated human embryonic stem cells; antigen is PODXL (antibody, V domains shown)
VH: QVQLQQSGGGLVQPGGSMKLSCVASGFTFSNYWMNWVRQSPEKGLEWVAEIRLKSNNYATHYAESVKGRFTISRDDSKSSVYLQMNNLRAEDTGIYYCTGERAWGQGTTVTVSS
VL: DIELTQSPAIMSASPGEKVTMTCSASSSVNYMYWYQQKPGSSPRLLIYDTSNLASGVPVRFSGSGSGTSYSLTISRMEAEDAATYYCQQWSSYPYTFGGGTKLEIKR
modifications: Synthetic sequenceVH chain of mAb 84; Synthetic sequence VL chain of mAb 84
notes: antigen is PODXL
As for B1, the koff (commonly a measure of how fast the partners let go of each other) in [3] turned out to be 0.0029 s⁻¹. Further, the kon in data set [3] is listed as 7.1 e4 M^−1 s^−1. The “relative binding (binding of mAb84 divided by binding of mAb85 to the same glycans)” value in data set [4] (9 glycans containing Fucα1-2Galβ1-3GlcNAc, RFU values) is “at least 37 times”. Besides, the “binding to glycans in the glycan array” value in data set [4] (465 glycans, V4.1 array, Alexa488 labeled secondary antibody) is reported as “selectively bind”. Further, the “detection of unglycosylated PODXL” value in data set [5] is “did not detect”; in data set [5] (listed as mAb 84), “does not bind”. For the same molecule, in data set [6], the “detection of expressed (glycosylated) PODXL” value is given as “does not bind”. Further, the “detection of PODXL from hESC” value with PODXL from hESC (HES-3) is given as “detected”. In addition, the “binding reactivity compared to undifferentiated hESC” value in the data set with day 8 embyroid bodies is recorded as “reduced”. Also, the “mAb 84-mediated killing” value was “decrease” in the data set on FGF2-starved hESC and “loss” in the data set with day 22 EB. Further, the “cytotoxicity against undifferentiated hESCs” value in [7] (WO 2007/102787) was “cytotoxic”. In addition, the “incubation time to cell death of undifferentiated hESC” value in [7] (undifferentiated hESC) is reported as at most 30 min. Further, the “cytotoxicity against IPSCs” value with IPSCs is listed as “cytotoxic”. Moreover, the tumour formation result in the data set on hESC is recorded as “absence of tumour formation”.
